T1: cystic fibrosis transmembrane conductance regulator (CFTR) inhibitory factor (Cif) (Pseudomonas aeruginosa, UniProt A0A0H2ZD27 25-319)
T1 construct: also called CIF protein; Cif-protein
T1 sequence: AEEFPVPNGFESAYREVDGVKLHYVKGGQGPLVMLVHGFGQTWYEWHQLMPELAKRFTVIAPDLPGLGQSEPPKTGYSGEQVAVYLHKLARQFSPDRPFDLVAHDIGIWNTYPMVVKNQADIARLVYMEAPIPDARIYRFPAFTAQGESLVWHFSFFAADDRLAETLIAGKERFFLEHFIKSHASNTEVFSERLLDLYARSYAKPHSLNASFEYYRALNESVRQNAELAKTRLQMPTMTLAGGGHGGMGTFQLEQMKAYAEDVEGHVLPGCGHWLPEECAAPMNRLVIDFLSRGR


Each binder was assayed against T1, cystic fibrosis transmembrane … (assay: sandwich ELISA, lower graph: Cif in serial dilution (about 0.05-100 ng/mL) captured on anti-Cif pAb 0.3 ug/well, VHH 50 ng/well, anti-HA mAb detection; the concentration is that of Cif; sheet labels the value IC50, text calls it EC50).
Procedure: (§1) 1). Immunoassay. A 96-well plate was coated with pAb at 3 μg/mL, 100 μL per well at RT for 1 h. The plate was blocked with 1% skimmed milk in PBST at RT for at least 2 h. Cif in PBS was loaded on the plate with increasing concentration and incubated for 1 h at RT. Following 5 times wash with PBST, VHH at 0.5 μg/mL in PBS, 100 μL per well (or 50 ng/well) was loaded. The plate was incubated for 1h at RT and then washed 5 times with wash buffer. Mouse anti-HA-HRP conjugate was added at 100 μl/well in a 1:3000 dilution as instructed by manufacturer. The plate was incubated for 1h at RT and washed 5 times. The plate was developed for 10 min with substrate solution added at 100 μl/well. The reaction was stopped by addition of 2M H₂SO₄ (50 μl/well) and absorbance was read at 450 nm. SigmaPlot 11.0 software was used for curve fitting and data analysis.
(§2) To evaluate produced recombinant antibodies, classical sandwich ELISA was performed using purified rabbit polyclonal anti-Cif antibodies as a capturing antibody (FIG. 3). […] Cif protein was loaded in a serial dilution range of 0.05-100 ng/mL and VHHs were added at 50 ng per well.

Row | Binder | EC50 [µg/mL]
1 | VHH CLONE 302 (VHH, The entry includes the C-terminal 6xHis and HA tags) VHH: QVKLQESGGGLVQPGGSLRLSCVASGNIGDIYTMGWYRQAPGKQRELVATVGDGGLTNFVDSVKGRFTISRDKSKGTVSLEMNSLKPEDTAVYYCNADVRIGPTGLRVYWGQGTQVTVSS | 0.0172
2 | VHH CLONE 220 (VHH, The entry includes the C-terminal 6xHis and HA tags; also called nanobody 220) VHH: EVQLVESGGGLVQPGGSLRLSCVASGNIGNIYTMGWYRQAPGKQRELVAAVGAGELTNYVDSVKGRFTISRDKSKGTVSLEMNSLKPEDTAVYYCNADVSIGPTGLRVYWGQGTQVTVSS | 0.0211
3 | VHH CLONE 103 (VHH, The entry includes the C-terminal 6xHis and HA tags) VHH: EVQLMESAGGLVRPGGSLRLSCVASGSIGDIYSMGWYRQAPGKQRELVATVGAGGLTDYGDSVLGRFTISRDKTKGTVSLEMNSLKPEDTAVYYCNADVSIGPTGLRVYWGQGTQVTVSS | 0.0168
4 | VHH CLONE 116 (VHH, The entry includes the C-terminal 6xHis and HA tags) VHH: EVQLVESGGGLVQPGGSLRLSCTASGSILKIYTMDWYRQAPGKQRDLVATVSSRGDTDYTDSVKGRFTISRDDAKNTAYLQMSSLKPEDTAVYYCNFYIQSRTAPFNDYWGQGTQVTVSS | 0.0312
5 | VHH CLONE 205 (VHH, The entry includes the C-terminal 6xHis and HA tags) VHH: DVQLQASGGGLVQPGGSLRLSCAATGSTDRIAFMGWYRQAPGKLRELVAGITSDGRTNYADDVDVSGRFTISRDSAKNMVYLQMNSLKPEDTAVYYCNADITLAMGGLRVYWGQGTQVTVSS | 0.0207

The binders below were run against T1, cystic fibrosis transmembrane … (assay: sandwich ELISA, upper graph: Cif in serial dilution (about 0.05-100 ng/mL) captured on anti-Cif pAb 0.3 ug/well, VHH 50 ng/well, anti-HA mAb detection; the concentration is that of Cif; sheet labels the value IC50, text calls it EC50).
Procedure: as §1, §2

Row | Binder | EC50 [µg/mL]
6 | VHH CLONE 213 (VHH, The entry includes the C-terminal 6xHis and HA tags) VHH: EVQLVESVGGLVQPGGSLRLSCVASGNIGDIYTMGWYRQAPGKQRELVATVGDGGLTNFVDSVKGRFTISRDKSKGTVSLEMNSLKPEDTAVYYCNADVRIGPTGLRVYWGQGTQVTVSS | 0.011
7 | VHH CLONE 320 (VHH, The entry includes the C-terminal 6xHis and HA tags; also called nanobody 320) VHH: DVQLQASGGGLVQPGGSLRLSCATSTSVFSITTLGWYRQAPGKQRELVASMKRGGDTNYADSVKGRFTISRDNARNTVFLQMNNLTTEDTAVYYCNAAILAYTGAVTNYWGQGTQVTVSS | 0.0061
8 | VHH CLONE 108 (VHH, The entry includes the C-terminal 6xHis and HA tags) VHH: EVQLVESGGGLVQPGGSLRLSCEATGNFDDRGIGWFRQAPGKEREGIACITTRGRTHYAESVEGRFTISTDIANNAVYLQMNSLKPEDTAVYYCAKAIRLTTDRTQCVAFPGVSWGRGTQVTVSS | 0.0098

Reference: patent publication US20220169708A1 (University of California, published 2022)
